This is an account of results in patent US20180155413A1 (AstraZeneca / MedImmune, published 2018).

Assay in all cases: cell-based or functional assay
Experiment [1] concerns the target HA of A/Wilson Smith N/33 (H1N1) (influenza A virus, UniProt P03454 18-565).
Experiment [2] addresses HA of A/Beijing/262/95 (H1N1) (influenza A virus).
Experiment [3] concerns the target HA of A/Solomon Island/3/2006 (H1N1) (influenza A virus).
In experiment [4] the target is HA of A/California/07/2009 (H1N1) (influenza A virus).
For experiment [5], the target named is HA of A/Hong Kong/8/68 (H3N2) (influenza A virus).
The target in experiment [6] is HA of A/Victoria/3/75 (H3N2) (influenza A virus).
In experiment [7] the target is HA of A/Shan dong/9/93 (H3N2) (influenza A virus).
In experiment [8] the target is HA of ca A/Panama/2007/99 (H3N2) (influenza A virus).
Experiment [9] concerns the target HA of ca B/Beijing/243/97 (victoria) (influenza B virus).
The target of experiment [10] is HA of B/Hong Kong/330/2001 (victoria) (influenza B virus).
The target in experiment [11] is HA of B/Malaysia/2506/2004 (victoria) (influenza B virus).
For experiment [12], the target named is HA of B/Ohio/1/2005 (victoria) (influenza B virus).
Experiment [13] concerns the target HA of B/Yamanashi/166/98 (yamagata) (influenza B virus).
For experiment [14], the target named is HA of B/Sichuan/379/99 (yamagata) (influenza B virus).
Experiment [15] deals with HA of B/Florida/4/2006 (yamagata) (influenza B virus).

Chain of HA of A/Wilson Smith N/33 (H1N1) (P03454 18-565 limits assumed): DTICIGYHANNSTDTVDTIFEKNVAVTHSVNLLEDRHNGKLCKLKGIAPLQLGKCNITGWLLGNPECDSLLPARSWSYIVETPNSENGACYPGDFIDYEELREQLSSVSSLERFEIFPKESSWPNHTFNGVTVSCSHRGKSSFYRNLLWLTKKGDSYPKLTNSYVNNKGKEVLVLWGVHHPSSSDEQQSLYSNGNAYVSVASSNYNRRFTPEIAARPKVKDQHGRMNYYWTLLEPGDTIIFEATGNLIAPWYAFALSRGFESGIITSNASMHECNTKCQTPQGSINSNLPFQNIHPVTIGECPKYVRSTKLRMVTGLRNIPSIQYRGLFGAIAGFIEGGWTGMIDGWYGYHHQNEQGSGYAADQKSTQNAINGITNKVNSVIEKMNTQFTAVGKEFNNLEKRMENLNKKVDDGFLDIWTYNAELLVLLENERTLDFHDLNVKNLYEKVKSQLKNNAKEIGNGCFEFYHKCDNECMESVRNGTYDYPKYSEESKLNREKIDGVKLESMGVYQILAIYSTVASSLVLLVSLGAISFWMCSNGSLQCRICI

B1: GL20/39FTL BiS4 43/105 (bispecific antibody)
light: DIQMTQSPSSLSASVGDRVTITCRTSQSLSSYTHWYQQKPGKAPKLLIYAASSRGSGVPSRFSGSGSGTDFTLTISSLQPEDFATYYCQQSRTFGQGTKVEIKRTVAAPSVFIFPPSDEQLKSGTASVVCLLNNFYPREAKVQWKVDNALQSGNSQESVTEQDSKDSTYSLSSTLTLSKADYEKHKVYACEVTHQGLSSPVTKSFNRGEC
heavy: not shown
Take B1: the “Neutralization (IC50)” value turned out to be 9.6 nM in [1]; 11.8 nM in [2]; 3.8 nM in experiment [3]; 20.8 nM in experiment [4]; 6.3 nM in experiment [5]; 14.9 nM in experiment [6]. Besides, the “Neutralization (IC50)” value was 22.2 nM in experiment [7]; 35.5 nM in experiment [8]; 23.5 nM in experiment [9]; 164 nM in experiment [10]; 16.2 nM in [11]; 17.5 nM in [12]. For the same molecule, the results for the “Neutralization (IC50)” value in experiment [13], in experiment [14] and in experiment [15] were 1.1 nM, 8.7 nM and 4.2 nM, respectively.

B2: FY1/94 BiS4 100/44 (bispecific antibody)
light: DIQMTQSPSSLSASVGDRVTITCRTSQSLSSYLHWYQQKPGKAPKLLIYAASSLQSGVPSRFSGSGSGTDFTLTISSLQPEDFATYYCQQSRTFGQGTKVEIKRTVAAPSVFIFPPSDEQLKSGTASVVCLLNNFYPREAKVQWKVDNALQSGNSQESVTEQDSKDSTYSLSSTLTLSKADYEKHKVYACEVTHQGLSSPVTKSFNRGEC
heavy: not shown
Consider B2, for which the “Neutralization (IC50)” value in [1] stood at 7.3 nM; in experiment [2] it was 13.1 nM; in experiment [3], 2.5 nM; in [4] it was 6.2 nM; in experiment [5] it was 9.1 nM; in [6], 7.2 nM. The “Neutralization (IC50)” value in experiment [7] worked out at 37.9 nM; in [8] it was 38.2 nM; in experiment [9], 1.8 nM; in [10], 4 nM; in experiment [11], 1.8 nM; in experiment [12], 3 nM. The “Neutralization (IC50)” value was 2.3 nM in [13], 5.2 nM in experiment [14] and 1.8 nM in experiment [15].

B3: FY1/39 BiS2 100/44 (bispecific antibody)
light: DIQMTQSPSSLSASVGDRVTITCRTSQSLSSYLHWYQQKPGKAPKLLIYAASSLQSGVPSRFSGSGSGTDFTLTISSLQPEDFATYYCQQSRTFGQGTKVEIKRTVAAPSVFIFPPSDEQLKSGTASVVCLLNNFYPREAKVQWKVDNALQSGNSQESVTEQDSKDSTYSLSSTLTLSKADYEKHKVYACEVTHQGLSSPVTKSFNRGEC
heavy: not shown
In the case of B3, the “Neutralization (IC50)” value is 17.7 nM in experiment [1]; 61.3 nM in experiment [2]; 9.9 nM in experiment [3]; 18.7 nM in [4]; 10.2 nM in experiment [5]; more than 1000 nM in experiment [6]. Besides, the “Neutralization (IC50)” value in [7] is 72.1 nM; in experiment [8] it was more than 1000 nM; in experiment [9], 6.1 nM; in [10], 7 nM; in [11], 5.6 nM; in experiment [12], 2.8 nM. The “Neutralization (IC50)” value in experiment [13] came out at 0.4 nM; in [14], 2.1 nM; in experiment [15], 1.7 nM.

B4: FY1/94 BiS2 100/44 (bispecific antibody)
light: DIQMTQSPSSLSASVGDRVTITCRTSQSLSSYLHWYQQKPGKAPKLLIYAASSLQSGVPSRFSGSGSGTDFTLTISSLQPEDFATYYCQQSRTFGQGTKVEIKRTVAAPSVFIFPPSDEQLKSGTASVVCLLNNFYPREAKVQWKVDNALQSGNSQESVTEQDSKDSTYSLSSTLTLSKADYEKHKVYACEVTHQGLSSPVTKSFNRGEC
heavy: not shown
In the case of B4, the “Neutralization (IC50)” value in experiment [1] turned out to be 19.9 nM; in [2] it was 42 nM; in experiment [3], 4.1 nM; in experiment [4] it was 23.1 nM; in [5] it was 17.2 nM; in experiment [6], 15.8 nM. The “Neutralization (IC50)” value in experiment [7] turned out to be 208 nM; in [8], 484 nM; in experiment [9], 1.1 nM; in experiment [10] it was 2.1 nM; in experiment [11] it was 0.8 nM; in experiment [12], 1.3 nM. Besides, the figures for the “Neutralization (IC50)” value in [13], in experiment [14] and in [15] were 0.5 nM, 1.7 nM and 0.6 nM, respectively.

B5: GL20/39FTL BiS4 100/44 (bispecific antibody)
light: DIQMTQSPSSLSASVGDRVTITCRTSQSLSSYTHWYQQKPGKAPKLLIYAASSRGSGVPSRFSGSGSGTDFTLTISSLQPEDFATYYCQQSRTFGQGTKVEIK
heavy (part 1 of 2): QVQLQQSGPGLVKPSQTLSLTCAISGDSVSSYNAVWNWIRQSPSRGLEWLGRTYYRSGWYNDYAESVKSRITINPDTSKNQFSLQLNSVTPEDTAVYYCARSGHITVFGVNVDAFDMWGQGTMVTVSS
heavy (part 2 of 2): DIQMTQSPSSVSASVGDRVTITCRASQDISTWLAWYQQKPGKAPKLLIYAASSLQSGVPSRFSGSGSGTDFTLTISSLQPEDFATYYCQQANSFPPTFGCGTKLEIKGGGGSGGGGSGGGGSGGGGSEVQLVESGGGLVKPGGSLRLSCAASGFTFLNAWMSWVRQAPGKCLEWVGRIKSNTDGGTTDYAAPVKGRFTISRDDSKNTLYLQMSSLKTEDTAVYYCTTDGPYSDDFRSGYAARYRYFGMDVWGQGTTVTVSS
Consider B5, for which the “Neutralization (IC50)” value in [1] was determined as 13.7 nM; in experiment [2], 16.4 nM; in experiment [3], 4.4 nM; in experiment [4] it was 25.4 nM; in experiment [5] it was 10.8 nM; in experiment [6] it was 13.3 nM. Besides, the “Neutralization (IC50)” value was determined as 21.9 nM in [7]; 34.1 nM in experiment [8]; 96.2 nM in [9]; 106 nM in experiment [10]; 42.8 nM in experiment [11]; 20.9 nM in experiment [12]. The “Neutralization (IC50)” value in experiment [13] worked out at 1.4 nM; in [14], 9.8 nM; in [15], 7.3 nM.

B6: FY1 IgG (antibody, V domains shown)
VH: QVQLQESGPGLVKPSQTLSLTCAISGDSVSSNNAVWNWIRQSPSRGLEWLGRTYYRSKWYNDYAESVKSRITVNPDTSKNQFSLHLKSVTPEDTAVFYCVRSGHITVFGVNVDAFDMWGQGTMVTVSS
VL: DIQMTQSPSSLSASVGDRVTITCRTSQSLSSYLHWYQQKPGKAPKLLIYAASSLQSGVPSRFSGSGSGTDFTLTISSLQPEDFATYYCQQSRTFGQGTKVEIK
Consider B6, for which the “Neutralization (IC50)” value in [1] amounted to 8.8 nM; in experiment [2], 21 nM; in experiment [3] it was 3.1 nM; in [4], 10.4 nM; in experiment [5], 10.6 nM; in [6], 12 nM. The “Neutralization (IC50)” value in experiment [7] is 34.6 nM; in experiment [8] it was 104 nM; in [9], more than 1000 nM; in [10], more than 1000 nM; in [11], more than 1000 nM; in experiment [12], more than 1000 nM. For the same molecule, the “Neutralization (IC50)” value in [13], in experiment [14] and in [15] was more than 1000 nM in each case.

B7: FY1/39 BiS1 100/44 (bispecific antibody)
light: DIQMTQSPSSVSASVGDRVTITCRASQDISTWLAWYQQKPGKAPKLLIYAASSLQSGVPSRFSGSGSGTDFTLTISSLQPEDFATYFCQQANSFPPTFGCGTKLEIKGGGGSGGGGSGGGGSGGGGSEVQLVVSGGGLVKPGGSLRLSCAASGLSFLNAWMSWVRQAPGKCLEWVGRIKSNTDGGTTDYAAPVKGRFSISRDDSKNMLFLHMSSLRTEDTAVYYCATDGPYSDDFRSGYAARYRYFGMDVWGQGTTVTVSSGGGGSGGGGSDIQMTQSPSSLSASVGDRVTITCRTSQSLSSYLHWYQQKPGKAPKLLIYAASSLQSGVPSRFSGSGSGTDFTLTISSLQPEDFATYYCQQSRTFGQGTKVEIKRTVAAPSVFIFPPSDEQLKSGTASVVCLLNNFYPREAKVQWKVDNALQSGNSQESVTEQDSKDSTYSLSSTLTLSKADYEKHKVYACEVTHQGLSSPVTKSFNRGEC
heavy: not shown
B7: the “Neutralization (IC50)” value in experiment [1] came to 28.2 nM; in experiment [2] it was 62.2 nM; in experiment [3] it was 14.7 nM; in [4], 32.5 nM; in experiment [5], 31.4 nM; in [6] it was 337 nM. The “Neutralization (IC50)” value is more than 1000 nM in experiment [7]; more than 1000 nM in [8]; 3.6 nM in experiment [9]; 5.3 nM in [10]; 4.1 nM in experiment [11]; 2.6 nM in experiment [12]. For the same molecule, the “Neutralization (IC50)” value came out at 0.1 nM in [13], 1.5 nM in experiment [14] and 1.1 nM in experiment [15].
